Consider four molecules from paper PMC5797236, “The odd one out: Arabidopsis reticulon 20 does not bend ER membranes but has a role in lipid regulation” (Scientific Reports, 2018).

The chains are these.
T1: GFP-RTN20 (Arabidopsis reticulon 20) (Arabidopsis thaliana, UniProt A9X4U2 1-561)
T1 construct: Reticulon 20 (RTN20), Arabidopsis thaliana, locus At2g43420; FRET donor; the methods name Gateway vectors for N- or C-terminal GFP without saying which was used for each gene; also called RTNLB20; source: tobacco (Nicotiana tabacum) leaf epidermal cells, Agrobacterium-mediated transient expression, in living cells; not shown: GFP, N-terminal, kept
T1 sequence (looked up): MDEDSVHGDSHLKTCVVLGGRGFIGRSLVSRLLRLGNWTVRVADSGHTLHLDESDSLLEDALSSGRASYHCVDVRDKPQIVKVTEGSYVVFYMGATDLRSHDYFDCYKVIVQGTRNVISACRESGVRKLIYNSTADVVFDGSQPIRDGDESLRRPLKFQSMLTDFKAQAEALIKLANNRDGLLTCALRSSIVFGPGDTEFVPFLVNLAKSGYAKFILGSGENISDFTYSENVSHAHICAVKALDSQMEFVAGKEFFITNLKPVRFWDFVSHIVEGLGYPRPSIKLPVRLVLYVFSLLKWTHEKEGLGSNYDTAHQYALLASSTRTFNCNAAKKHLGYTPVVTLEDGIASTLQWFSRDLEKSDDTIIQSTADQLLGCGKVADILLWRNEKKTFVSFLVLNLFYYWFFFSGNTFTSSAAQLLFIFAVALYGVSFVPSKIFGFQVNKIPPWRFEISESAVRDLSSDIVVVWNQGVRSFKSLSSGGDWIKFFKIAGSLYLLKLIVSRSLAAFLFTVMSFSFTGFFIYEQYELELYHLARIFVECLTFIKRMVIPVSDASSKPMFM

B1: RTN3 fused to mRFP (Arabidopsis reticulon 3) (natural protein, Arabidopsis thaliana, UniProt Q9SH59 1-255, looked up)
chain: MAEEHKHEESIMEKISEKIHGHDDSSSSSSDSDDDKNSASLKTKIYRLFGREQPLHKLFGGGKPADIFLWRNKKVSGGVLGAATVSWILFELLEYNLLTLFGHISILALAVLFLWSSASTFIHKSPLHIPEVHIPEDVVLQLASGLRIEINRGFTVLRDIASGRDLKKFLLVIAGLWVLSKVGSSCNFLTLIYIATVLLFTIPVLYEKYEDKVDDFGEKAMREIKKQYVEFDVKVLSKVMSKIPKGAFAFIKKKD
notes: Reticulon 3 (RTN3), Arabidopsis thaliana, locus AT1G64090; FRET acceptor; also called RTNLB3; source: tobacco (Nicotiana tabacum) leaf epidermal cells, Agrobacterium-mediated transient expression, in living cells
B2: RTN2 fused to mRFP (Arabidopsis reticulon 2) (natural protein, Arabidopsis thaliana, UniProt Q9SUT9 1-271, looked up)
chain: MADEHKHEESSPNLDPAVEVVERESLMEKLSEKIHHKGDSSSSSSSDDENEKKSSSSSPKSLKSKVYRLFGRERPVHKVLGGGKPADIFMWKDKKMSGGVFGGATVAWVLFELMEYHLLTLLCHVMIVALAVLFLWSNATMFIHKSPPKIPEVHIPEEPLLQLASGLRIEINRGISSLREIASGRDIKKFLSAIAGLWVLSILGGCYSFLTLAYIALVLLFTVPLFYDKYEDKVDSYGEKAMAELKKQYAVLDAKVFSKIPRGPLKDKKKD
notes: Reticulon 2 (RTN2), Arabidopsis thaliana, locus AT4G11220; FRET acceptor; also called RTNLB2; source: tobacco (Nicotiana tabacum) leaf epidermal cells, Agrobacterium-mediated transient expression, in living cells
B3: RTN19 fused to mRFP (Arabidopsis reticulon 19, 3BETAHSD/D2) (natural protein, Arabidopsis thaliana, UniProt Q67ZE1 1-564, looked up)
chain: MSPAATETERWCVVTGGRGFAARHLVEMLVRYEMFCVRIADLAPAIMLDPQEGNGVLDEGLRSGRVQYISADLRDKSQVVKAFQGAEVVFHMAAPDSSINNHQLQYSVNVQGTQNVIDACVDVGVKRLIYTSSPSVVFDGVHGILNGTESMAYPIKHNDSYSATKAEGEELIMKANGRNGLLTCCIRPSSIFGPGDRLLVPSLVAAARAGKSKFIIGDGNNLYDFTYVENVAHAHVCAERALASGGDVSTKAAGQAYFITNMEPIKFWEFMSQLLDGLGYERPSIKIPAFIMMPIAHLVELTYKVLGPYGMTVPQLTPSRVRLLSCSRTFDSTKAKDRLGYAPVVPLQEGIRRTIDSFSHLTAGSQSKREGPSKASRILGGGKVADTLLWKDLKQTLIAIFILISIYYNFVATGSTVVTALSKALLVASVFLFLHGILPEKIFGYTVEKIPASQFHLSKDSSHDLSLSVISSWNTTVKALRSLCQGNDWSFFFKVVFVLLALSLAGAISLHSIFVIGLPIAFLAFLVYEKKEQEIDSIVVSFKSFACKHKSDVYEKLFGSKKHD
notes: Reticulon 19 (RTN19, 3beta-hydroxysteroid dehydrogenase/C-4 decarboxylase isoform 2), Arabidopsis thaliana, locus At2g26260; FRET acceptor; also called RTNLB19; source: tobacco (Nicotiana tabacum) leaf epidermal cells, Agrobacterium-mediated transient expression, in living cells
B4: mRFP-RTN1 (Arabidopsis reticulon 1) (natural protein, Arabidopsis thaliana, UniProt Q9SUR3 1-275, looked up)
chain: MAEEHKHDESVIAPEPAVEVVERESLMDKISEKIHHGGDSSSSSSSSDDEDEKKKTKKPSSPSSSMKSKVYRLFGREQPVHKVLGGGKPADIFMWKNKKMSGGVLGGATAAWVVFELMEYHLLTLLCHVMIVVLAVLFLWSNATMFINKSPPKIPEVHIPEEPILQLASGLRIEINRGFSSLREIASGRDLKKFLIAIAGLWVLSILGGCFNFLTLAYIALVLLFTVPLAYDKYEDKVDPLGEKAMIELKKQYAVLDEKVLSKIPLGPLKNKKKD
notes: Reticulon 1 (RTN1), Arabidopsis thaliana, locus AT4G23630; FRET acceptor; also called RTNLB1; source: tobacco (Nicotiana tabacum) leaf epidermal cells, Agrobacterium-mediated transient expression, in living cells; not shown: mRFP, N-terminal, kept

The target of this experiment is T1, GFP-RTN20 (Arabidopsis reticulon 20). Kind of experiment: FRET or BRET; FRET-FLIM in living tobacco leaf epidermal cells; GFP-RTN20 as donor, mRFP fusions as acceptors, transiently co-expressed; two-photon excitation at 920 nm; lifetimes measured at the ER associated with the nuclear envelope; donor alone 2.4 ± 0.03 ns. Conditions: partners not purified. On the technique in general: In BRET a luciferase serves as donor, and the signal depends on an acceptor being close.
Regarding B1, the “GFP donor fluorescence lifetime (FRET-FLIM)” value came to 2.2 ns.
Turning to B2, the “GFP donor fluorescence lifetime (FRET-FLIM)” value came out at 2.2 ns.
On to B3, for which the “GFP donor fluorescence lifetime (FRET-FLIM)” value was 2.2 ns.
For the molecule B4, the “GFP donor fluorescence lifetime (FRET-FLIM)” value came out at 2.21 ± 0.02 ns.
